Data as given in the supplement of paper PMC9170038.

System: MS2 coat protein
Test: apparent KD of MS2 coat protein; designed switch direction (-1 OFF switch, 1 ON switch): 1; higher = weaker reporter binding
Method in brief: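 RNA switches sharing common flanks were transcribed by stalled E. coli RNA polymerase on Illumina chips. A doubling series of SNAP-549-labelled MS2 coat protein, from 0.7 or 1.5 nM to 3 µM, was applied in Tris-HCl pH 7.5 buffer with KCl, MgCl2, BSA, DTT, tRNA and Tween-20. Each step lasted 0.8–1.5 h at the bottom of the series and 10–20 min at the top. Normalised cluster fluorescence was curve-fitted, giving apparent KD as the per-design median over clusters.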

[1] = input ligand: microRNA oligo, concentration not stated
[2] = Eterna round: R95, input ligand: FMN 200 uM
[3] = Eterna round: R95, input ligand: microRNA oligo, concentration not stated
[4] = Eterna round: R95, input ligand: none

| Sequence | apparent KD of MS2 coat protein (input ligand: FMN 200 uM) [nM] | apparent KD of MS2 coat protein [1] [nM] | apparent KD of MS2 coat protein (input ligand: none) [nM] | apparent KD of MS2 coat protein [2] [nM] | apparent KD of MS2 coat protein [3] [nM] | apparent KD of MS2 coat protein [4] [nM] |
| --- | --- | --- | --- | --- | --- | --- |
| CGUUGUUCCUGAGGAUAUCAGUUGUUUGCAUUAUGAGAAGGCAGUACAUGAGGAUCACCCAUGUUGGGAUUUGAUAGAAUGACG [JR_SSNG1_Sub008] (Eterna round: R96, puzzle: Same State NG 1) | 221 | 113 | 226 |  |  |  |
| CUGCAACAUGAGGAUCACCCAUGUAACCCAAUUAUAGGAUAUGUGAUAGUGAUCGACAUGACAGAAGGGUGAUUGG [Riraence] (puzzle: Same State 1) |  |  |  | 149 | 188 | 291 |
| AAAAGAAACACAGGAUAUACCGCACUUAACGCGGUAGAAGGGUGGGACAUGAGGAUCACCCAUGUGGCCUGAGCACCAGGCCGC [Orgele] (Eterna round: R96, puzzle: Same State NG 1) | 47 | 5.38 | 21.8 |  |  |  |
| GGGAAACCUCAAGGAUAUGCUACCGUUUCGGUAGCAGAAGGUGAUCACAUGAGGAUCACCCAUGUAUGCAUGCGUGAGCGUGCU [JL SSNG1 3.57] (Eterna round: R96, puzzle: Same State NG 1) | 42.6 | 71.3 | 47 |  |  |  |
| AAAUAAACACAUGAGGAUCACCCAUGUCCCAAAAUACAAACGCAGGAUAUGGGCACGAACCGUGUCCAGAAGGGCGCAAAAUAC [Esonbia] (Eterna round: R96, puzzle: Same State NG 3) | 24.5 | 111 | 116 |  |  |  |
| ACAUUUAGCUCGUGCACAUGAGGAUCACCCAUGUUCGGUUCACAGGAUAUCUAGUCAAACGGAUUGGAGAAGGGUGGCAGGAGC [Gelegees] (Eterna round: R96, puzzle: Same State NG 3) | 35.7 | 128 | 215 |  |  |  |
| UUUACAUUACGAGGAUAUCAAUUAUUUCAUGUUUGAGAAGGCGUUUUUUUUAUUACCUUACAUGAGGAUCACCCAUGUUUCAUU [JR_SSNG1_Sub042] (Eterna round: R96, puzzle: Same State NG 1) | 19.4 | 18.4 | 25.5 |  |  |  |
| ACCAAUCCAAUAAAACAAGCGUGCUCGUCACAUGAGGAUCACCCAUGUUUAAGCGCUGUUCCUAAUUCCUCAGCGCC [Isoreder] (puzzle: Sensor for hsa-mir-208a) |  |  |  | 182 | 28.8 | 168 |
| GCCGCGUUUCGCGCCUACAUGAGGAUCACCCAUGUAUGUAGGCAGGAUAUCGUUUGCUUUGCAAACGAGAAGGGCUGUAGUGGC [salish99_SSNG3_R04_008] (Eterna round: R96, puzzle: Same State NG 3) | 70.4 | 165 | 188 |  |  |  |
| UGAGCCGGCACUGAGGAUAUUCAUAUUAAAACAUGAGGAUCACCCAUGUAGGCCAGAAGGCCUUGGGAGAAGGCAGGUCGGCUCU [Mat - Same State 2 - Mod of UCT - D60] (puzzle: Same State 2) |  |  |  | 22.6 | 185 | 334 |
| GUUUCAUCGAAAGGAUAUGUAUUGAUUGCCAUUGCAGAAGGUUCUCAGACAUGAGGAUCACCCAUGUCAAGCGGAAACGUAGUA [Eternabot solution 37] (Eterna round: R96, puzzle: Same State NG 1) | 20.1 | 15.4 | 47.6 |  |  |  |
| GUCAACACAAUAGGAUAUUAGACCAUGGAGCCGUACAUGAGGAUCACCCAUGUCUUAGGUUGAUCUAAGAAGGAUUCGUGACGU [Eternabot solution 47] (Eterna round: R96, puzzle: Same State NG 2) | 53.4 | 59.1 | 86 |  |  |  |
| CAUCGUUUGAUAGGAUAUCGCUAUACAUGAGGAUCACCCAUGUUUACCACGCUGGUUUUUCAUACCGAGAAGGAUUCUGAUGAA [salish99_SSNG02_r04_011] (Eterna round: R96, puzzle: Same State NG 2) | 24.9 | 29.7 | 34.5 |  |  |  |
| GACAAUUGACAUGAGGAUCACCCAUGUAUUACUUCGUGUUUUUGCUCGUCUUAUGUUAGGUUCGAAAGGAGCUUAAC [Polished] (puzzle: Sensor for hsa-mir-208a version 2) |  |  |  | 68.6 | 16.2 | 86.7 |
| AAUCGUUUGAUAGGAUAUCGCUAUACAUGAGGAUCACCCAUGUUUACCACGCUGGUUUUUCAUACCGAGAAGGAUUCUGAUGAG [salish99_SSNG02_r04_001] (Eterna round: R96, puzzle: Same State NG 2) | 72.1 | 45.7 | 53.4 |  |  |  |
| AGUCCAGCCUGAGCUGGACAAGAGCAUGUACAUGAGGAUCACCCAUGUUCAUGUACAAGCUUUUUGCUCGUCUUAAA [Zipper 52 - 2] (puzzle: Sensor for hsa-mir-208a) |  |  |  | 399 | 12.7 | 565 |

| Sequence | apparent KD of MS2 coat protein (input ligand: FMN 200 uM) [nM] | apparent KD of MS2 coat protein [1] [nM] | apparent KD of MS2 coat protein (input ligand: none) [nM] | apparent KD of MS2 coat protein [2] [nM] | apparent KD of MS2 coat protein [3] [nM] | apparent KD of MS2 coat protein [4] [nM] |
| --- | --- | --- | --- | --- | --- | --- |
| CUCAAAACAAGCUGCAGUGUUCGUCUUUCACAUGAGGAUCACCCAUGUAGUAGCCCAGUGGAAGCGCUCGGGCCACC [Eronrace] (puzzle: Sensor for hsa-mir-208a) |  |  |  | 55 | 24.9 | 54.1 |
| UUUUUUUUACAUGAGGAUCACCCAUGUCGGGCUGUUUGCUUUCAUGUCUUAUUGCAUGCAUGUUUUUCAUGCAUGCU [jnicol vienna2 solution] (puzzle: Sensor for hsa-mir-208a version 2) |  |  |  | 97.7 | 129 | 145 |
| GCCUCUGCUCCACAGGAUAUGCGCUGUUGUACAUGAGGAUCACCCAUGUGCAGCCGACCAGAGCUGCAGAAGGGUGAGAGAGAGU [Atisanesxe] (puzzle: Same State 2) |  |  |  | 28.6 | 253 | 243 |
| GGAGCCGGCACCGAGGAUAUUCAUAUUAAAACAUGAGGAUCACCCAUGUACAGGAGAACCUGUUGGGAGAAGGCGGAUCGGCUCG [Xeonanis - 25] (puzzle: Same State 2) |  |  |  | 29.9 | 296 | 437 |
| GUGGUGUAGAUACAGGAUAUGUUGCUCGUAACAUGAGGAUCACCCAUGUAUCUAUGAGAUUAAAUGCAGAAGGGUGCACACCACG [Maerveen] (Eterna round: R96, puzzle: Same State 2) | 22 | 220 | 358 |  |  |  |
| AGUCCAGCCUGAGCUGGACAAAAGCAUGUACAUGAGGAUCACCCAUGUCAUGUACAAGCUUUUAGCUCGUCUUAAAA [Mat - hsa-mir-208a - Mod of JL - D14] (puzzle: Sensor for hsa-mir-208a) |  |  |  | 455 | 14.6 | 501 |
| AUUUAACAAGCUUUUUGCUCGUCUUAUAAACAUGAGGAUCACCCAUGUAAUAGCGUGAGAGUAAAUAAUUAAAUAAU [JMF 89] (puzzle: Sensor for hsa-mir-208a) |  |  |  | 13.3 | 50.7 | 9.91 |
| UCUUGGUUUUUGCUCGUUUUUUGUGUUGAACAUGAGGAUCACCCAUGUAUUGUACGGUCCAAUUUAAUGAUGGUCCA [JMF 36] (puzzle: Sensor for hsa-mir-208a) |  |  |  | 30.8 | 17.8 | 32.4 |
| GCGAUAUGAUGUUACAUGAGGAUCACCCAUGUAGCGAUAGCUAAGGAUAUUGGAAAGGGAGGAGACGAGAAGGUAGGAUCACGC [AK SSNG3-V2-23.1] (Eterna round: R96, puzzle: Same State NG 3) | 44.9 | 15.7 | 36.1 |  |  |  |
| AGCCGAGACUGAGGAUAUAGAUAUCUACAUGAGGAUCACCCAUGUAGCAACACGUGGUAGUGAUUCUAGAAGGCGGCUCGGCGC [Omei SS(NG)2 Cv6] (Eterna round: R96, puzzle: Same State NG 2) | 19.2 | 66.2 | 83.7 |  |  |  |
| GGAGCCGGCACGGAGGAUAUUCAUAUUAAAACAUGAGGAUCACCCAUGUAGGCCAGAAGGCCUUGGGAGAAGGCCGAUCGGCUCG [Xeonanis - 15] (puzzle: Same State 2) |  |  |  | 21.9 | 306 | 409 |
| UUUAUAUUCAGAGGAUAUUAAUGUAGUAUAACAUAAGAAGGCUGUUUGUUUUGUAAAGUAAUUCUACAUGAGGAUCACCCAUGU [JR_SSNG1_Sub084] (Eterna round: R96, puzzle: Same State NG 1) |  | 15.5 |  |  |  |  |
| AAUUGUUUCUGAGGAUAUCAGUAGUAUGCCAAUUGAGAAGGCAGUACAUGAGGAUCACCCAUGUUAUGGUUUGAUAGAAUGAUA [JR_SSNG1_Sub001] (Eterna round: R96, puzzle: Same State NG 1) | 74.8 | 51.2 | 54.1 |  |  |  |
| UGACACACGGCAGGAUAUGCUUAGCAAAGCUAAGCAGAAGGGCCUCAUGUCGUGGAAACGUGACAUGAGGAUCACCCAUGUCGC [Omei SS(NG)1 Cv4] (Eterna round: R96, puzzle: Same State NG 1) | 122 | 6.01 | 17.7 |  |  |  |
| UGUUAACAUGAGGAUCACCCAUGUCAAAUGAAGCGAGGAUAUGGAAAGUAAUAAGAUGAACUAGAAGGUGUAGUAG [Altered State 1-20 - Jieux - Same State 1] (puzzle: Same State 1) |  |  |  | 37.6 | 59.4 | 62 |
